From US20250283037A1 (JUNO THERAPEUTICS, published 2025)

What was measured:
[1] = target: T1, CD4 on the surface of human T cells (human, UniProt P01730 26-458); assay: affinity column selection of cells from apheresis by the CD4 marker
T1 construct: whole, on cells; also called selection marker CD4

[2] = target: T2, Strep-tactin M2 (streptavidin mutein) immobilised on the chromatography resin (Streptomyces avidinii, UniProt P22629 38-163); assay: loading of the tagged Fab on Strep-tactin Sephadex G50, 20 min at 4 C
T2 construct: also called immobilized Strep-tactin; STREP-TACTIN-coated resin

binding result [1]: binds
binding result [2]: binds
B1: anti-CD4 Fab fragment m13B8.2 with Twin Strep-Tag (Fab, V domains shown)
VH: QVQLKQSGPGLVQPSQSLSITCTVSGFSLTTFGVHWVRQSPGKGLEWLGVIWASGITDYNVPFMSRLSITKDNSKSQVFFKLNSLQPDDTAIYYCAKNDPGTGFAYWGQGTLVTVSA
VL: DIQMTQSPASLSASVGETVTFTCRASEMIYSYLAWYQQKQGKSPQLLVHDAKTLAEGVPSRFSGGGSGTQFSLKINTLQPEDFGTYYCQAHYGNPPTFGGGTKLEIKR
